Assay results taken from patent publication EP4793287A1, “TUMOR MICROENVIRONMENT SPECIFICALLY ACTIVATED CD47 ANTIBODY” (Affinity (Shanghai) Biopharmaceutical Co., Ltd., priority 2023, dated 2025).

Legend:
[1] = In vivo hematological toxicity, blood cell counting; parameters: species or system hSIRPA/hCD47 (C57 background) mice; settings: for PLT Count Mean / RBC Count Mean: 5mg/kg single intraperitoneal dose
Experimental: hSIRPA/hCD47 (C57 background) mice were randomly divided into 4 groups based on body weight, with 3 mice per group. The hematological toxicity of 70H1.IgG1.Y61C+20K and 70H1.IgG1.Y61C+40K was studied via intraperitoneal injection.
The experimental groups were divided as follows: • 70H1.IgG1.Y61C+20K (5 mg/kg) group, • 70H1.IgG1.Y61C+40K (10 mg/kg) group, • 70H1.IgG1.Y61C+40K (20 mg/kg) group, • 70H1.IgG1.Y61C+40K (30 mg/kg) group.
After grouping, a single dose of the corresponding antibody was administered intraperitoneally to the mice. Blood cell counting was performed on the mice at D0 (pre-dose), D2, D5, D7, D9, and D12.

CHOK1-CD47 cells = biological target: T1, CHOK1-CD47 cells (Homo sapiens, UniProt Q08722); assay: FACS binding of CD47 antibodies to CHOK1-CD47 cells; settings: Example 4.3
T1 construct: expressed in transfected cells; host or cells: CHO-K1 (CHOK1-CD47, puromycin selection)
T1 sequence (Q08722 19-323): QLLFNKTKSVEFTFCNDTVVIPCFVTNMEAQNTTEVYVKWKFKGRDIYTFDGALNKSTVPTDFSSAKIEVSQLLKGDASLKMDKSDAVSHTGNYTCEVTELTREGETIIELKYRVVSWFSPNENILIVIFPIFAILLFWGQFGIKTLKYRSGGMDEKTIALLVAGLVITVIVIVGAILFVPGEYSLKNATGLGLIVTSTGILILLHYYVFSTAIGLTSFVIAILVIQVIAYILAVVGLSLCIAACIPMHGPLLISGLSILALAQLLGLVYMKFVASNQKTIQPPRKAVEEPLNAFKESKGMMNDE
Experimental: The desired overexpressing cell line, CHOK1-CD47 (cultured in RPMI-1640 (ATCC Modification, Gibco, Cat# A10491-01) + 10% FBS (BI, Cat# 04-001-1A) + 1× P/S + 6 µg/ml Puromycin (Gibco, Cat# a1113803, 10 × 1 ml (10 mg/ml))), was expanded to the logarithmic phase. Cells were digested, collected, and pipetted to create a single-cell suspension, followed by centrifugation and removal of the supernatant. The cells were resuspended in FACS buffer (PBS + 2% FBS) and counted, and the cell density was adjusted to 2×10^6/ml. 100 µl/well of this suspension was added to a 96-well plate (Corning, Cat# 3799). […] After three washes with FACS buffer by centrifugation, the cells were resuspended in 200 µl/well of FACS buffer and analyzed using FACS (BECKMAN COULTER, CytoFLEX). Data were fitted and the results were analyzed using software (GraphPad Prism 8).
The desired overexpressing cell line, CHOK1-CD47 (cultured in RPMI-1640 (ATCC Modification, Gibco, Cat# A10491-01) + 10% FBSThe (BI, Cat# 04-001-1A) + 1× P/S + 6 µg/ml Puromycin (Gibco, Cat# A1113803, 10 × 1 ml (10 mg/ml))), was expanded to the logarithmic phase. […] After three washes with FACS buffer by centrifugation, the cells were resuspended in 200 µl/well of FACS buffer and analyzed using FACS (BECKMAN COULTER, CytoFLEX). Data were fitted and the results were analyzed using software (GraphPad Prism 8).

[2] = biological target: T2, Recombinant human CD47 protein (Homo sapiens, UniProt Q08722); assay: ELISA detection of CD47 antibody; format: binding
T2 construct: purchased DIMA BIOTECH PME-100008
T2 sequence (Q08722 19-323): as above
Experimental: Recombinant human CD47 protein (DIMA BIOTECH, Cat# PME-100008) was diluted with PBS to a concentration of 1 µg/ml, coated onto ELISA plates with 100 µl/well, and incubated overnight at 4 °C. On the following day, the plates were washed with 300 µl/well of PBST for three times. 300 µl/well of blocking solution (PBST containing 1% BSA (W/W)) was added, and the plates were blocked at 37 °C for 2 hours. After the blocking solution was discarded, the plates were washed with PBST for three times. 100 µl/well of antibody (5-fold gradient dilution, 8 dilution points) was added and incubated at 37 °C for 1 hour. The antibody solution was then discarded, and the plates were washed with PBST for three times. Goat anti-Human IgG Fc Highly Cross-Adsorbed Secondary Antibody, HRP (Invitrogen, Cat# A18829, 1:5000 dilution, 100 µl/well) was added and incubated at 37 °C for 0.5 hours, followed by three washes with PBST. 100 µl/well of TMB chromogenic substrate (solarbio, Cat# PR1200) was added and incubated at 37 °C for 5 minutes, after which 50 µl/well of ELISA stop solution (solarbio, Cat# C1058) was added. The OD450 was read using a microplate reader (ELx800 Absorbance Microplate Reader, BioTek). Data analysis and curve fitting were performed using software (GraphPad Prism 8).

B1: CD47 TMEAbody: CD47 TMEAbody conjugated with PEG of approximately 20K molecular weight (i.e., PEG20K) (conjugate)
VH: QQQLEESGGGLVKPEGSLTLTCTASGFSFSSGYDMCWVRQAPGRGLEWIACIYTRSSGGTCYASWAKGRFTISKTSSTVDLRMTSLTAADTATYFCAGGRSSYRLNLWGQGALVTVSS
VL: DVVMTQTPSPVEAAVGGTVTIKCQASQSISNELSWYQQKPGQPPKLLIYRASTLESGVSSRFKGSGSGTEFTLTISDLECADAATYYCQSTFYGDYGNAFGGGTEVVVK
PLT Count Mean ([1]; D0 (pre-dose)): 1668.33 10^9/L | RBC Count Mean ([1]; D0 (pre-dose)): 8.53 10^12/L | PLT Count Mean ([1]; D2): 1406.33 10^9/L | RBC Count Mean ([1]; D2): 6.56 10^12/L | PLT Count Mean ([1]; D5): 1142.33 10^9/L | RBC Count Mean ([1]; D5): 7.48 10^12/L | PLT Count Mean ([1]; D7): 1435.33 10^9/L | RBC Count Mean ([1]; D7): 9.62 10^12/L | PLT Count Mean ([1]; D9): 1356.00 10^9/L | RBC Count Mean ([1]; D9): 9.55 10^12/L | PLT Count Mean ([1]; D12): 1351.00 10^9/L | RBC Count Mean ([1]; D12): 9.45 10^12/L | change in red blood cells ([1]; 5 mg/kg, D2 post-administration): reversible decrease in red blood cells | change in platelets ([1]; 5 mg/kg, D5 post-administration): reversible decrease in platelets | binding to cells lower compared to 70H1 (CHOK1-CD47 cells): approximately 20 fold | binding affinity weaker compared to 70H1 [2]: approximately 7 fold | recovery of binding affinity ([2]; legumain (asparaginyl endopeptidase, AEP)): recoverable by legumain
